T1: Kita-kyushu lung cancer antigen 1 (CT83, KKLC1, CXorf61) peptide on HLA-A*02 (human)
T1 peptide: RILVNLSMV

T2: Kita-kyushu lung cancer antigen 1 (CT83, KKLC1, CXorf61) peptide on HLA-A*02 (human)
T2 peptide: KLVELEHTLL


What was measured:
[1] = target: T1, Kita-kyushu lung cancer antigen 1 …; assay: binding, other
[2] = target: T2, Kita-kyushu lung cancer antigen 1 …; assay: binding, other

binding result [1] | binding result [2] | Binder
recognises | – | TCR of SEQ ID NOs 20 and 21 (TCR, V domains shown) Valpha: KQEVTQIPAALSVPEGENLVLNCSFTDSAIYNLQWFRQDPGKGLTSLLLIQSSQREQTSGRLNASLDKSSGRSTLYIAASQPGDSATYLCAVNELGRLYFGRGTQLTVWP Vbeta: NAGVTQTPKFQVLKTGQSMTLQCAQDMNHEYMSWYRQDPGMGLRLIHYSVGAGITDQGEVPNGYNVSRSTTEDFPLRLLSAAPSQTSVYFCASSYSGGYTFGSGTRLTVV
recognises | – | TCR of SEQ ID NOs 16 and 17 (TCR, V domains shown) Valpha: KQEVTQIPAALSVPEGENLVLNCSFTDSAIYNLQWFRQDPGKGLTSLLLIQSSQREQTSGRLNASLDKSSGRSTLYIAASQPGDSATYLCAVSGNTPLVFGKGTRLSVIA Vbeta: NAGVTQTPKFRVLKTGQSMTLLCAQDMNHEYMYWYRQDPGMGLRLIHYSVGEGTTAKGEVPDGYNVSRLKKQNFLLGLESAAPSQTSVYFCASSYVGNTEAFFGQGTRLTVV
recognises | – | TCR of SEQ ID NOs 18 and 19 (TCR, V domains shown) Valpha: KQEVTQIPAALSVPEGENLVLNCSFTDSAIYNLQWFRQDPGKGLTSLLLIQSSQREQTSGRLNASLDKSSGRSTLYIAASQPGDSATYLCAPSGNTPLVFGKGTRLSVIA Vbeta: NAGVTQTPKFRVLKTGQSMTLLCAQDMNHEYMYWYRQDPGMGLRLIHYSVGEGTTAKGEVPDGYNVSRLKKQNFLLGLESAAPSQTSVYFCASSFLGNTEAFFGQGTRLTVV
– | recognises | TCR of SEQ ID NOs 12 and 13 (TCR, V domains shown) Valpha: KQEVTQIPAALSVPEGENLVLNCSFTDSAIYNLQWFRQDPGKGLTSLLLIQSSQREQTSGRLNASLDKSSGRSTLYIAASQPGDSATYLCAVMEDSGYALNFGKGTSLLVTP Vbeta: NAGVTQTPKFQVLKTGQSMTLQCAQDMNHEYMSWYRQDPGMGLRLIHYSVGAGITDKGEVPNGYNVSRLNKREFSLRLESAAPSQTSVYFCASSRTGYYGYTFGSGTRLTVV
– | recognises | TCR of SEQ ID NOs 10 and 11 (TCR, V domains shown) Valpha: KQEVTQIPAALSVPEGENLVLNCSFTDSAIYNLQWFRQDPGKGLTSLLLIQSSQREQTSGRLNASLDKSSGRSTLYIAASQPGDSATYLCAVTTQGGSEKLVFGKGTKLTVNP Vbeta: NAGVTQTPKFQVLKTGQSMTLQCAQDMNHEYMSWYRQDPGMGLRLIHYSVGAGITDQGEVPNGYNVSRSTTEDFPLRLLSAAPSQTSVYFCASSYSDRGYSPLHFGNGTRLTVT
– | recognises | TCR of SEQ ID NOs 14 and 15 (TCR, V domains shown) Valpha: KQEVTQIPAALSVPEGENLVLNCSFTDSAIYNLQWFRQDPGKGLTSLLLIQSSQREQTSGRLNASLDKSSGRSTLYIAASQPGDSATYLCAVGGEETSGSRLTFGEGTQLTVNP Vbeta: NAGVTQTPKFQVLKTGQSMTLQCAQDMNHEYMSWYRQDPGMGLRLIHYSVGAGITDQGEVPNGYNVSRSTTEDFPLRLLSAAPSQTSVYFCASSYSDRGYSPLHFGNGTRLTVT
